In PMC10293011 (Nature Cancer, 2023):
Non-standard residues stand in square brackets, D forms with d. No end group written: not given here. Phe(3,5-F2) = N[C@@H](Cc1cc(F)cc(F)c1)C(=O)O

B1: biotinylated YAP peptide (amino acids 50–100) (peptide, UniProt P46937 50-100, looked up)
peptide: AGHQIVHVRGDSETDLEALFNAVMNPKTANVPQTVPMRLRKLPDSFFKPPE
modifications: biotin (position not given)
notes: YAP (Yes-associated protein), amino acids 50–100; Held by streptavidin-XL665 in the assay; also called YAP 50–100
B2: S3, 19F-labeled YAP peptide (residues 80–100) (peptide)
peptide: Ac-VPQTVPMRLRKLPDS[Phe(3,5-F2)]FKPPE
modifications: not fully specified
notes: YAP residues 80–100; Phe95 is 3,5-difluoro-phenylalanine; also called peptide S3; source: synthetic peptide, bought: ABclonal
B3: pepYAP, YAP peptide (amino acids 60–100) (peptide)
peptide: DSETDLEALFNAVMNPKTANVPQTVPMRLRKLPDSFFKPPE
notes: source: synthetic peptide, bought: ABclonal
B4: biotinylated mouse vestigial-like protein 1 peptide, amino acids 20–51 (site 2 probe) (peptide, UniProt Q99NC0 20-51, looked up)
peptide: KTEWNAGSVIFTYFEGDINSMVDEHFSRALRN
modifications: also: biotin, position not given here
notes: mouse vestigial-like protein 1 (Vgll1), amino acids 20–51; also called mVgll1; Vgll1 peptide
B5: S2, 19F-labeled YAP peptide (residues 59–81) (peptide)
peptide: Ac-GDSETDLEAL[Phe(3,5-F2)]NAVMNPKTANVP
modifications: not fully specified
notes: YAP residues 59–81; Phe69 is 3,5-difluoro-phenylalanine; also called peptide S2; source: synthetic peptide, bought: ABclonal

Tests used:
Conditions in all cases: both partners purified
[1] = target: T1, TEAD3 (Q216–D435), YAP-binding domain, His-tagged (human, UniProt Q99594 216-435); assay: AlphaScreen or HTRF; TEAD–YAP TR-FRET: His-tagged TEAD (YAP-binding domain) with europium anti-His antibody, preincubated 30 min with small molecules; biotinylated YAP peptide (50–100) with streptavidin-XL665; 60 min, room temperature; read at 665 and 615 nm
T1 construct: The construct has a TEV site after the His tag; treated with 2.5% hydroxylamine; source: E. coli BL21 (DE3), autoinduction, purified (hydroxylamine treated, size exclusion); not shown: His6, N-terminal, kept
T1 sequence (Q99594 216-435): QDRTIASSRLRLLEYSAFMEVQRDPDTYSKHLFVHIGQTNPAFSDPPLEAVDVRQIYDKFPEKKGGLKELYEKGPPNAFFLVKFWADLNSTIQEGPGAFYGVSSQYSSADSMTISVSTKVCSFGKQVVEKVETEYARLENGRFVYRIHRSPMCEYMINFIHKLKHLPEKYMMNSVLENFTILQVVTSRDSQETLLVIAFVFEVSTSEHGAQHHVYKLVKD

[2] = target: T2, TEAD2 (A217–D447), YAP-binding domain, His-tagged (human, UniProt Q15562 217-447); assay: 1D 19F NMR of the free peptides; 20 μM S2, 20 μM S3 and 10 μM TEAD2 in PBS (100% D2O), pH 7.4, 298 K; displacement by addition of 55 μM compound 2, GNE-7883 or pepYAP
T2 construct: The construct has a TEV site after the His tag; The tag is kept in the TR-FRET/HTRF assays (anti-His detection); Treated with 2.5% hydroxylamine; source: E. coli BL21 (DE3), autoinduction, purified (hydroxylamine treated, size exclusion); not shown: His6, N-terminal, kept
T2 sequence (Q15562 217-447): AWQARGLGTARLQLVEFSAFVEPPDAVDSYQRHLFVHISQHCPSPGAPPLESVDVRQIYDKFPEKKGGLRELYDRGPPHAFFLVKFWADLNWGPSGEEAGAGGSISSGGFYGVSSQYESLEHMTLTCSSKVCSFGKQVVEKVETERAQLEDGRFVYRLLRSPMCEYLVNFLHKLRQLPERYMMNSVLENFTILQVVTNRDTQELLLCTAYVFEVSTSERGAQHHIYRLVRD

[3] = target: T2, TEAD2 (A217–D447), YAP-binding domain, …; assay: AlphaScreen or HTRF; site 2/site 3-specific HTRF: His-tagged TEAD preincubated 30 min with compounds in 50 mM HEPES pH 7.2, 100 mM NaCl, 0.01% Tween-20, 0.5 mg/ml bovine gamma globulin, 1 mM dithiothreitol; biotinylated probe added for 60 min; europium anti-His and streptavidin-XL665; room temperature

Binder	binding result [2]	further results
B1	–	binding result [1]: binds
B2	binds	–
B3	binds	–
B4	–	binding result [3]: binds
B5	binds	–
